These results are taken from IntAct's records for PubMed 31435016.

Sequences and labels used below:
B1: Isoform 2 of ATP-binding cassette sub-family B member 8, mitochondrial (Homo sapiens), Q9NUT2-2 (parent)
chain: MLVHLFRVGIRGGPFPGRLLPPLRFQTFSAVRYSDGYRSSSLLRAVAHLRSQLWAHLPRAPLAPRWSPSAWCWVGGALLGPMVLSKHPHLCLVALCEAEEAPPASSTPHVVGSRFNWKLFWQFLHPHLLVLGVAVVLALGAALVNVQIPLLLGQLVEVVAKYTRDHVGSFMTESQNLSTHLLILYGVQGLLTFGYLVLLSHVGERMAVDMRRALFSSLLRQDITFFDANKTGQLVSRLTTDVQEFKSSFKLVISQGLRSCTQVAGCLVSLSMLSTRLTLLLMVATPALMGVGTLMGSGLRKLSRQCQEQIARAMGVADEALGNVRTVRAFAMEQREEERYGAELEACRCRAEELGRGIALFQGLSNIAFNCMVLGTLFIGGSLVAGQQLTGGDLMSFLVASQTVQRSMANLSVLFGQVVRGLSAGARVFEYMALNPCIPLSGGCCVPKEQLRGSVTFQNVCFSYPCRPGFEVLKDFTLTLPPGKIVALVGQSGGGKTTVASLLERFYDPTAGVVMLDGRDLRTLDPSWLRGQVVGFISQEPVLFGTTIMENIRFGKLEASDEEVYTAAREANAHEFITSFPEGYNTVVGERGTTLSGGQKQRLAIARALIKQPTVLILDEATSALDAESERVVQEALDRASAGRTVLVIAHRLSTVRGAHCIVVMADGRVWEAGTHEELLKKGGLYAELIRRQALDAPRTAAPPPKKPEGPRSHQHKS
partner: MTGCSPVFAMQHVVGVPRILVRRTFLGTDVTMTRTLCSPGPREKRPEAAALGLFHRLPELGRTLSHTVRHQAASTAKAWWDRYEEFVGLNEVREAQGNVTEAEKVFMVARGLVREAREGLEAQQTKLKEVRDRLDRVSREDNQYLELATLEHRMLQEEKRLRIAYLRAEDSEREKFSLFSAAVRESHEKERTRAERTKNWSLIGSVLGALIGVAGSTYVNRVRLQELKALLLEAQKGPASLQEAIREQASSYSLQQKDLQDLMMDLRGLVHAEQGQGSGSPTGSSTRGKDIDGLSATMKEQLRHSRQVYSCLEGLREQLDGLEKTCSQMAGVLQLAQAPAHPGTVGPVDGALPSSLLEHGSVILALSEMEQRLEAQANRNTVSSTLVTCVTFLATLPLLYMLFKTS

Variants of B1 are the subject of this test. To be noted: with Ccdc51, Q3URS9-1.
K496A: the “effect of a mutation on the interaction” value is listed as “with no effect”.
